# Measured values taken from patent US20260263521A1 (AIMED BIO, published 2026).
# T1: cynomolgus CD200R1 with dual His-tags (cynomolgus, UniProt G7NZT0 25-266)
# T1 construct: Captured on the SPR chip by an anti-histidine antibody; also called CCD200R1-his; cCD200R1-his; not shown: dual His-tags
# T1 sequence: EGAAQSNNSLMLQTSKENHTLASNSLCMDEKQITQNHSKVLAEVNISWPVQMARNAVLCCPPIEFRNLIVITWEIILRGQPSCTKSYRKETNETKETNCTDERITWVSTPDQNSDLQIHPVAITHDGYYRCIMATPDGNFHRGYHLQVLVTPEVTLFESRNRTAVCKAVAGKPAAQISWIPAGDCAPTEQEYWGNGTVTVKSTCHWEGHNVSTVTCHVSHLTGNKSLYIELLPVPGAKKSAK
# T2: human CD200R1 with dual His-tags (human, UniProt Q8TD46 25-265)
# T2 construct: Captured on the SPR chip by an anti-histidine antibody; also called hCD200R1-his; not shown: dual His-tags
# T2 sequence (looked up): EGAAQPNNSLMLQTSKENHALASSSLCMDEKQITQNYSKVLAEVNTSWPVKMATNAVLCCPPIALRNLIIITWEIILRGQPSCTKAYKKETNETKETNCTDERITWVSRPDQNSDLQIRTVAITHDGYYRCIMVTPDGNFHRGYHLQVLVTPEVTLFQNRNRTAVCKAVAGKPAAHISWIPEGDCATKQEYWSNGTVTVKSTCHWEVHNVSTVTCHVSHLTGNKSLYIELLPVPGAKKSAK
# T3: human CD200R1 expressed on cells (Jurkat-CD200R1, U937-CD200R1, HH cells) (human, UniProt Q8TD46 25-348)
# T3 construct: whole, on cells; also called HH (CRL-2105); cell surface-expressed CD200R1
# T3 sequence (looked up): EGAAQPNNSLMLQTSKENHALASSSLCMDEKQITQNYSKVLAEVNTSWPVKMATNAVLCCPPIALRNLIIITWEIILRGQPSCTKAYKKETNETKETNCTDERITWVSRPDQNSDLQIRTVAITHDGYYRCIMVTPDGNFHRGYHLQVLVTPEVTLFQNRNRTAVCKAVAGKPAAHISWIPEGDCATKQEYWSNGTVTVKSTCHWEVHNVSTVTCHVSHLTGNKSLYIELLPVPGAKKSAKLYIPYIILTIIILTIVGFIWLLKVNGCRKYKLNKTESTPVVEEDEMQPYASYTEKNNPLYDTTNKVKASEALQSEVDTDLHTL
# T4: monkey CD200RLa (Sino Biological, 11576-C02H) recombinant protein (monkey (cyno), UniProt A0A2K5W6R0 30-246)
# T4 construct: Bought; construct not described; also called cyno CD200RLa
# T4 sequence: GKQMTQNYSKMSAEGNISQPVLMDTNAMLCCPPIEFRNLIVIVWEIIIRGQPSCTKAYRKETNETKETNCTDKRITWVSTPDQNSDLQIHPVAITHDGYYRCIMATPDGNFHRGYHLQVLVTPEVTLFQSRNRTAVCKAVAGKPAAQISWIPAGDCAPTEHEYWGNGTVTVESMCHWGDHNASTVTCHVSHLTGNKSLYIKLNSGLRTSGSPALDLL
# T5: human CD200RLa (Sino Biological, 11620-H08H) recombinant protein (human, UniProt Q6Q8B3 24-239)
# T5 construct: Bought; construct not described
# T5 sequence (looked up): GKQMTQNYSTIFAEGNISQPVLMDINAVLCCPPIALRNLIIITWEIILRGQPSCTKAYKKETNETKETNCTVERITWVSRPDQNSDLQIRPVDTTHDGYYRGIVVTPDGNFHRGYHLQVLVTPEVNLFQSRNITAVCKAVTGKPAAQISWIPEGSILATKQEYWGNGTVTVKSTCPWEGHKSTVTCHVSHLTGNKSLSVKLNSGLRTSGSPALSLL
# T6: mouse CD200R1 protein (R&D systems, 2554-CD) (mouse, UniProt Q9ES57 26-238, limits assumed)
# T6 construct: Bought; construct not described
# T6 sequence (looked up): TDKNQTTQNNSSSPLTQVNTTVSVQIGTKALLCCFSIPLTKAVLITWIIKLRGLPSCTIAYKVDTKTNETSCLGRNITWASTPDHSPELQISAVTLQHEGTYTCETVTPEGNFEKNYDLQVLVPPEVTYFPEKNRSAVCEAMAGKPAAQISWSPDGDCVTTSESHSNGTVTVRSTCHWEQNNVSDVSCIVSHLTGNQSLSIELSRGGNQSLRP
# Legend:
# [1] = target: T1, cynomolgus CD200R1 with dual His-tags; assay: SPR (Biacore CM5), His-tagged antigen captured by anti-histidine antibody, antibody as analyte, 1:1 Langmuir fit
# Method: (§1) For the experiment, 30 μg/mL of an anti-histidine antibody was conjugated to a CM5 biacore chip via an amine bond while allowing to flow at 10 μl/min (10,000 RU). Then, 0.25 μg/mL of human or cynomolgus CD200R1 with dual His-tags was captured onto the completed chip for 60 seconds, and the binding ability of each antibody was analyzed. All experiments were performed by association of antibodies for 120 seconds and dissociation of antibodies for 600 seconds. The resulting graphs were fitted using a 1:1 Langmuir binding kinetic model (FIG. 16), and the kinetics of each antibody were calculated.
# [2] = target: T2, human CD200R1 with dual His-tags; assay: as above
# Method: as §1
# [3] = target: T3, human CD200R1 expressed on cells …; assay: flow cytometry, Jurkat-CD200R cells
# Method: Two additional wells were treated with 10 μl of mouse IgG1K (BD, #555751) and 5 μl of commercial CD200R1 antibody (Biolegend, #329308) to determine CD200R1 expression on the cell line surface for cell quality control.
# The antibodies were serially diluted 10-fold from a maximum concentration of 100 nM to 10 nM, 1 nM, […], and were added to the pre-seeded cells. After reaction for 1 hour at 4° C., the cells were treated with Alexa-647 goat anti-human IgG (H+L) cross-adsorbed secondary antibody (Invitrogen, #A21445) and incubated for an additional 30 minutes at 4° C. After washing twice with FACS buffer, flow cytometry was performed using a Novocyte Flow cytometer (Agilent). Using GraphPad Prism software, the EC₅₀ was determined using a nonlinear graph model of log (agonist) vs. response-variable slope, as shown in Table 32.
# [4] = target: T4, monkey CD200RLa (Sino Biological, …); assay: ELISA, plate-bound monkey CD200RLa (2 ug/mL), antibody 0.0192-300 nM, O.D 450 nm; panel 'recombinant cynomolgus CD200RLa/Fc'
# Method: (§2) 96-well plates were coated with human CD200RLa (Sino Biological, 11620-H08H) and monkey CD200RLa (Sino Biological, 11576-C02H) recombinant proteins at a concentration of 2 μg/mL at 4° C. for 16 hours, and blocked with 3% skim milk for 1 hour. […] Color was developed with a TMB substrate solution (Thermo Scientific, 34029, 1-Step™ Ultra TMB-ELISA Substrate Solution). The color reaction was stopped with stop solution (Invitrogen, SS04, ELISA Stop Solution).
# [5] = target: T5, human CD200RLa (Sino Biological, …); assay: ELISA, plate-bound human CD200RLa (2 ug/mL), antibody 0.0192-300 nM, O.D 450 nm; panel 'recombinant human CD200RLa'
# Method: as §2
# [6] = target: T6, mouse CD200R1 protein (R&D systems, …); assay: ELISA, plate-bound mouse CD200R1 (2 ug/mL), IgG 0.0192-300 nM, OD 450 nm; panel 'mouse CD200R1'
# Method: 96-well plates were coated with human CD200R1 (R&D systems, 3414-CD) and mouse CD200R1 protein (R&D systems, 2554-CD) at a concentration of 2 μg/mL at 4° C. for 16 hours and then were blocked with 3% skim milk.
# Color was developed with a TMB substrate solution (Thermo Scientific, 34029, 1-Step™ TMB-ELISA Ultra Substrate Solution). The color reaction was stopped with stop solution (Invitrogen, SS04, ELISA Stop Solution). The absorbance was measured at an optical density of 450 nm.
# [7] = target: T3, human CD200R1 expressed on cells …; assay: flow cytometry on Jurkat-CD200R1 and HH cells, 500 nM antibody in IgG1 form
# Method: The cells were washed by centrifugation at 130 g for 5 minutes. The cells were seeded onto 96-well round-bottom plates (SPL, #34296) at a density of 1×10⁵ cells/well in Flow cytometry staining buffer (Invitrogen, #00-4222-26) or FACS buffer. […] After incubation for 1 hour at 4° C., the cells were treated with Alexa-647 Goat anti-human IgG (H+L) cross-adsorbed secondary antibody (Invitrogen, #A21445) and incubated at 4° C. for an additional 30 minutes. After washing twice with FACS buffer, flow cytometry analysis was performed using a Novocyte Flow cytometer (Agilent).
Binder,Kd [1],koff [1],kon [1],binding result [4],binding result [5],binding result [6],Kd [2],koff [2],kon [2],EC50 [3],"MFI normalized to P001017 (chimeric OX108), % [7]"
"P001009v2 (antibody, V domains shown, P001009 with LC S52K and D93R (Kabat); also called P019001v2) VH: EVQLLESGGGLVQPGGSLRLSCAASGFTFSSYDMSWVRQAPGKGLEWVSWISHGGGSIYYADSVKGRFTISRDNSKNTLYLQMNSLRAEDTAVYYCARDAPAYSAPLFDYWGQGTLVTVSS VL: QSVLTQPPSASGTPGQRVTISCSGSSSNIGNNAVNWYQQLPGTAPKLLIYYDKNRPSGVPDRFSGSKSGTSASLAISGLRSEDEADYYCAAWDRSLSGYVFGGGTKLTVL",0.0286 nM,8.08e-05 s⁻¹,2.82e+06 M⁻¹ s⁻¹,–,–,–,0.87 nM,0.00654 s⁻¹,7.52e+06 M⁻¹ s⁻¹,3.08 nM,–
"P001009v4 (antibody, V domains shown, P001009 with LC N31K (Kabat); also called P019001v4) VH: EVQLLESGGGLVQPGGSLRLSCAASGFTFSSYDMSWVRQAPGKGLEWVSWISHGGGSIYYADSVKGRFTISRDNSKNTLYLQMNSLRAEDTAVYYCARDAPAYSAPLFDYWGQGTLVTVSS VL: QSVLTQPPSASGTPGQRVTISCSGSSSNIGNKAVNWYQQLPGTAPKLLIYYDSNRPSGVPDRFSGSKSGTSASLAISGLRSEDEADYYCAAWDDSLSGYVFGGGTKLTVL",0.0822 nM,0.000305 s⁻¹,3.71e+06 M⁻¹ s⁻¹,–,–,–,1.04 nM,0.007 s⁻¹,6.74e+06 M⁻¹ s⁻¹,2.37 nM,–
"P001011 (IgG) (antibody, V domains shown) VH: EVQLLESGGGLVQPGGSLRLSCAASGFTFSDYYMSWVRQAPGKGLEWVSWISSGGGSTYYADSVKGRFTISRDNSKNTLYLQMNSLGAEDTAVYYCARVRGTCNGTLCYYSNAMDVWGQGTLVTVSS VL: QSVLTQPPSASGTPGQRVTISCTGSSSNIGSNDVSWYQQLPGTAPKLLIYDDNHRPSGVPDRFSGSKSGTSASLAISGLRSEDEADYYCGTWDASLNAYVFGGGTKLTVL",–,–,–,no binding (tested: 300 nM),no binding (tested: 300 nM),no binding (tested: 300 nM),–,–,–,–,–

# Second part, led by results:
Kd [1],koff [1],kon [1],binding result [4],binding result [5],binding result [6],Binder,Kd [2],koff [2],kon [2],EC50 [3],"MFI normalized to P001017 (chimeric OX108), % [7]"
–,–,–,no binding (tested: 300 nM),no binding (tested: 300 nM),–,"P001007 (IgG) (antibody, V domains shown) VH: EVQLLESGGGLVQPGGSLRLSCAASGFTFSNYDMSWVRQAPGKGLEWVSAISYDNGNTYYADSVKGRFTISRDNSKNTLYLQMNSLRAEDTAVYYCARNRAWFDYWGQGTLVTVSS VL: QSVLTQPPSASGTPGQRVTISCSGSSSNIGNNNVYWYQQLPGTAPKLLIYYDSQRPSGVPDRFSGSKSGTSASLAISGLRSEDEADYYCAAWDASLNGYVFGGGTKLTVL",–,–,–,–,–
–,–,–,–,no binding (tested: 300 nM),no binding (tested: 300 nM),"P001006 (IgG) (antibody, V domains shown) VH: EVQLLESGGGLVQPGGSLRLSCAASGFTFSDYAMSWVRQAPGKGLEWVSGISYGNGNTYYADSVKGRFTISRDNSKNTLYLQMNSLRAEDTAVYYCAKDPWQTAINDFDYWGQGTLVTVSS VL: QSVLTQPPSASGTPGQRVTISCTGSSSNIGNNSVNWYQQLPGTAPKLLIYTNSHRPSEVPDRFSGSKSGTSASLAISGLRSEDEADYYCGTWDSSLSGYVFGGGTKLTVL",–,–,–,–,> 50%
1.15 nM,7.09 s⁻¹,6.14e+09 M⁻¹ s⁻¹,–,–,–,"P001009v3 (antibody, V domains shown, P001009 with LC N30S (Kabat); also called P019001v3) VH: EVQLLESGGGLVQPGGSLRLSCAASGFTFSSYDMSWVRQAPGKGLEWVSWISHGGGSIYYADSVKGRFTISRDNSKNTLYLQMNSLRAEDTAVYYCARDAPAYSAPLFDYWGQGTLVTVSS VL: not shown",0.109 nM,0.000452 s⁻¹,4.16e+06 M⁻¹ s⁻¹,0.33 nM,–
